Test results from PMC3335097 (2012).
No end group written: not given here. *: point of attachment. MTSSL = spin label (R1), CC1(C)C=C(CS*)C(C)(C)N1[O]

Assays:
[1] = target: T1, p15 fragment of spin labeled cleaved mouse Bid (cBidR1), MTSSL on C126 (Mus musculus (Mouse), UniProt P70444, MTSSL spin label (R1) on C126); experiment: DEER EPR (also cw EPR; Trp/Tyr fluorescence at 0.5 uM); no detergent; MTSSL on C30 and C126; 2% OG or 2% DDM dissociates (reversed by OG removal), cardiolipin liposomes only partly
T1 chain: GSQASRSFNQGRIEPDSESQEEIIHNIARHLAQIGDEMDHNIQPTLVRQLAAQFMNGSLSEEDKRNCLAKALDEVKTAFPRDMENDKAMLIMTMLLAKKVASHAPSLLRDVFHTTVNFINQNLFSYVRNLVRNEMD

[2] = target: T2, p15 fragment of Caspase-8-cleaved mouse Bid (tBid) (Mus musculus (Mouse), UniProt P70444); experiment: SEC co-elution as 20 kDa complex, with SDS-PAGE and CD melting; no detergent; detergent (DDM/OG) dissociates the fragments, cardiolipin liposomes only partly
T2 chain: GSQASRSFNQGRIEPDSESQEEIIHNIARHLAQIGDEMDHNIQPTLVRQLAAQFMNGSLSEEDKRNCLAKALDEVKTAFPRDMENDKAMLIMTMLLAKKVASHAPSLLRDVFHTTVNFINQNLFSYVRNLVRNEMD

B1: p7 fragment of spin labeled cleaved mouse Bid (cBidR1), MTSSL on C30 (protein)
chain: MDSEVSNGSGLGAEHITDLLVFGFLQSSGC(MTSSL)TRQELEVLGRELPVQAYWEADLEDELQTD
binding result [1]: binds

B2: p7 fragment of Caspase-8-cleaved mouse Bid (protein)
chain: MDSEVSNGSGLGAEHITDLLVFGFLQSSGCTRQELEVLGRELPVQAYWEADLEDELQTD
binding result [2]: binds
